Laboratory results published in the DeepSol protein solubility set.

Test: soluble on expression in E. coli; label from the status in PepcDB or PDB records

Soluble on expression in E. coli, not soluble:
MGSDKIHHHHHHMDKLQRISEAIKSKKKLVVMFSGGVDSTLLAKLAREVLGKNAVALTIDSPVIPRKEIEEAKNLANLIGIRHEFIELNELKSRHLIENPPDRCYLCRKLRDNIVKNWARENGFDVIADGLNFSDLQDYRPGVKASTEDGIWHPFIDFEVTKEEIREYSKKLGLPTWDKPAMACLCSRFPYGFGLNEERVRMVEKAENFLRELGFREVRVRFFPYKTAVVEVGRDEMELLMGKRTDIVLALQKIGFSFVTLDLEGFASGKLNRTIEGMSK
MGSDKIHHHHHHMDNLIIKPGYVTQFQCVGPECEDSCCYDWRISFDKKSYKNTIKHPLLATTAKSAFIETKKSTSDWADIRLNEQGACPFVNEHKLCDIHAKAGEQALSHTCKTYPRIHKVIGGNKYESLYLSCPEVTRLVLFNPNAFQFDSNISGIKQPSTPSPIWLEKTHEYSLDLLVNLGLDWEQVLLAIGLLIKVSDQVRQNILPIEELDKRLQQLKLYAQSGALAEQYKNLPYSPLPQMHAFIAVHNELCKTHSRGVRERFTSLNQAVAALCNEENNYQIDALNQAWAEHAVPALISHTDLFERYILYSIYHHHFPLIDSQQLSWEAFRLLVLDCFMIRSYLSAIAFKNKGLSESDIVMCFQLYQVVRQHKIEFTQSMSKTLEECGIDSVPAAICLLKTNI
MGSDKIHHHHHHMDPRRRLVPDIITLQAFECAARHGNFTRAAEELNLTQSAVSRQIGELEAQTGMQLFERIRRRVVLSEAGRKFLPDVRRLLQQSEQLMVRAVSAGTSHASLSVATLPTFGSRWLMPRLSRFIDANPDMTITIGSRSHPFDFDEEGFDLAIHYGQPIWAHGTCTFLCNEVIVPVASPALLRRAGVNRAQDLAGQPLLHVTTRPKLWTEWLEMNGVTADNAYQGSRFDQFSMIIEAAASGIGFALLPRYLIEAELASSRLEIVFDIPLQTDKSYYVALPEGRQDNVLARAFQAWLLDQVGKPV
MGSDKIHHHHHHMDVTSTLSLGDPLEPARKATADMLRSRDHSFSLPQPFYCDQRLFEIDMQEIFHKEWLIAGMTCEIPAKGNFLTLQIGKNPVLVIRGAEGQVHAFHNVCRHRGSRLCVSEKGKVAKLVCPYHQWTYELDGRLLFAGTEMGADFDMKEYGLKPIQVKTAGGYIFISLAENPPAIDDFLATLEHYMEPYDMENAKVAVQTTIREAANWKLVIENNRECYHCNGSHPELLKTLLEWDDVTDPRASQAFKDQVAACTSAWDAEKIPYAHASFGLRNRIVRMPLLDGTVSMTMDGKQGSKKLMGRIKNPDLGSMRILHLPHSWNHCMGDHLIVFTVWPISAQETLVTTKWLVHKDAVEGVDYDVARLREVWDATNDQDRRLAEENQRGINSDAYQPGPYSKTYEFGVINFLDWYSERMLNNLGEESAHVRKVAGS
MGSDKIHHHHHHMDYYAGIDVSLELSSVCIVNQDGKIFREVKVASDPEALIGLFGGLGVALSRIGLEAGPLSQWLHAGLTAGGYDVVLLETRHVKAGLSAMTVKTDRKDARGIAHLLRMGWFRPVHCKTNSAQEIRVLLVGRKLLQSKMGDLEQGIRGLLRGFGLKVGVISKGRFAARIRELVAGQAMLETVAEPMLRARDALRAEFTLLHRQILAIVRKDDLCRRLMTVPGVGPLVALTFKSGIDDPSRFTSSKTVGAHFGLTPKKYQSGETDITGGITRTGDAMVRMALYEAAQVLLTRSQRFSSLKRWALEVAKRRGMKRAKVALARKLATVLHRMWIDGSDFRWGKEITSA
MGSDKIHHHHHHMEELLERVFSFSDVDKLIDFISYELQKPVILESADFFLLAYNSYYINHFDSANQQTIFSKKCPVQIFERFLKDGIIEKLKTEPEPFRVNKIESIGLNQRVVVSAKHKGEVMGYIWIQELDQNLTDEELDFLYETSFHVGKIIYKTNKLKQEKEEKAEDLIKRAIYQQFTSEKELRREAERINTVLPSMFSVVILHAANGDGEAVEDLKENIRSYLNLRDKVSHVLTIESNIVIVVASFSQKSSVSSAASEFINKLLTHFHFQKIPTPIYIGIGNEYNHLLKLGKSYTEALEVIKAAEITGNQENIPYEYAKLGIYRYLESIEQKNEFLEYENKDLALLKAKDEESSTELLKTLEVYLLNNCKTKPAAEQLFIHQNTLNYRIKQITEMTSIDLSDFRTRCQLYLDLMLMKKK
